Experimental data from patent US20140087995A1 (published 2014).
Numbered stars: 1 amine (or outer) side, 2 acyl side, 3 side chain; on linkers, the order of the positions; unused ones are H or OH. Bridge positions count the residues as written; N and C are the ends. Side chains are listed from the residue outwards. Ends that are not written are not given here. * marks the point of attachment. C20 diacid = O=C(O)CCCCCCCCCCCCCCCCCCC(=O)*; γGlu = O=C(O)[C@H](CCC(=O)[*:2])N[*:1]; AEEA = NCCOCCOCC(=O)O

B1: N^ε1-[2-[2-[2-[[2-[2-[2-[[(4S)-4-carboxy-4-(19-carboxynonadecanoylamino)butanoyl]amino]ethoxy]ethoxy]acetyl]amino]ethoxy]ethoxy]acetyl]-[Arg17,Pro21,Pro27,Arg34 … (peptide)
peptide: K([AEEA-AEEA-γGlu-C20 diacid])CNTATCATQRLANFLRHSSPNFGAIPSSTNVGRNTY-NH2
modifications: disulfide 2-7; N-terminus assumed
SMILES: CC[C@H](C)[C@H](NC(=O)[C@H](C)NC(=O)CNC(=O)[C@H](Cc1ccccc1)NC(=O)[C@H](CC(N)=O)NC(=O)[C@@H]1CCCN1C(=O)[C@H](CO)NC(=O)[C@H](CO)NC(=O)[C@H](Cc1c[nH]cn1)NC(=O)[C@H](CCCNC(=N)N)NC(=O)[C@H](CC(C)C)NC(=O)[C@H](Cc1ccccc1)NC(=O)[C@H](CC(N)=O)NC(=O)[C@H](C)NC(=O)[C@H](CC(C)C)NC(=O)[C@H](CCCNC(=N)N)NC(=O)[C@H](CCC(N)=O)NC(=O)[C@@H](NC(=O)[C@H](C)NC(=O)[C@@H]1CSSC[C@H](NC(=O)[C@@H](N)CCCCNC(=O)COCCOCCNC(=O)COCCOCCNC(=O)CC[C@H](NC(=O)CCCCCCCCCCCCCCCCCCC(=O)O)C(=O)O)C(=O)N[C@@H](CC(N)=O)C(=O)N[C@@H]([C@@H](C)O)C(=O)N[C@@H](C)C(=O)N[C@@H]([C@@H](C)O)C(=O)N1)[C@@H](C)O)C(=O)N1CCC[C@H]1C(=O)N[C@@H](CO)C(=O)N[C@@H](CO)C(=O)N[C@H](C(=O)N[C@@H](CC(N)=O)C(=O)N[C@H](C(=O)NCC(=O)N[C@@H](CCCNC(=N)N)C(=O)N[C@@H](CC(N)=O)C(=O)N[C@H](C(=O)N[C@@H](Cc1ccc(O)cc1)C(N)=O)[C@@H](C)O)C(C)C)[C@@H](C)O
notes: also called compound 95
B2: N^ε1-[2-[2-[2-[[2-[2-[2-[[(4S)-4-carboxy-4-(19-carboxynonadecanoylamino)butanoyl]amino]ethoxy]ethoxy]acetyl]amino]ethoxy]ethoxy]acetyl]-[Arg17,Pro21,Pro27,His34 … (peptide)
peptide: K([AEEA-AEEA-γGlu-C20 diacid])CNTATCATQRLANFLRHSSPNFGAIPSSTNVGHNTY-NH2
modifications: disulfide 2-7; N-terminus assumed
SMILES: CC[C@H](C)[C@H](NC(=O)[C@H](C)NC(=O)CNC(=O)[C@H](Cc1ccccc1)NC(=O)[C@H](CC(N)=O)NC(=O)[C@@H]1CCCN1C(=O)[C@H](CO)NC(=O)[C@H](CO)NC(=O)[C@H](Cc1c[nH]cn1)NC(=O)[C@H](CCCNC(=N)N)NC(=O)[C@H](CC(C)C)NC(=O)[C@H](Cc1ccccc1)NC(=O)[C@H](CC(N)=O)NC(=O)[C@H](C)NC(=O)[C@H](CC(C)C)NC(=O)[C@H](CCCNC(=N)N)NC(=O)[C@H](CCC(N)=O)NC(=O)[C@@H](NC(=O)[C@H](C)NC(=O)[C@@H]1CSSC[C@H](NC(=O)[C@@H](N)CCCCNC(=O)COCCOCCNC(=O)COCCOCCNC(=O)CC[C@H](NC(=O)CCCCCCCCCCCCCCCCCCC(=O)O)C(=O)O)C(=O)N[C@@H](CC(N)=O)C(=O)N[C@@H]([C@@H](C)O)C(=O)N[C@@H](C)C(=O)N[C@@H]([C@@H](C)O)C(=O)N1)[C@@H](C)O)C(=O)N1CCC[C@H]1C(=O)N[C@@H](CO)C(=O)N[C@@H](CO)C(=O)N[C@H](C(=O)N[C@@H](CC(N)=O)C(=O)N[C@H](C(=O)NCC(=O)N[C@@H](Cc1c[nH]cn1)C(=O)N[C@@H](CC(N)=O)C(=O)N[C@H](C(=O)N[C@@H](Cc1ccc(O)cc1)C(N)=O)[C@@H](C)O)C(C)C)[C@@H](C)O
notes: also called compound 97
B3: N^ε1-[2-[2-[2-[[2-[2-[2-[[(4S)-4-carboxy-4-(19-carboxynonadecanoylamino)butanoyl]amino]ethoxy]ethoxy]acetyl]amino]ethoxy]ethoxy]acetyl]-[Arg17,Pro21,Pro27,Pro31 … (peptide)
peptide: K([AEEA-AEEA-γGlu-C20 diacid])CNTATCATQRLANFLRHSSPNFGAIPSSTPVGSNTY-NH2
modifications: disulfide 2-7; N-terminus assumed
SMILES: CC[C@H](C)[C@H](NC(=O)[C@H](C)NC(=O)CNC(=O)[C@H](Cc1ccccc1)NC(=O)[C@H](CC(N)=O)NC(=O)[C@@H]1CCCN1C(=O)[C@H](CO)NC(=O)[C@H](CO)NC(=O)[C@H](Cc1c[nH]cn1)NC(=O)[C@H](CCCNC(=N)N)NC(=O)[C@H](CC(C)C)NC(=O)[C@H](Cc1ccccc1)NC(=O)[C@H](CC(N)=O)NC(=O)[C@H](C)NC(=O)[C@H](CC(C)C)NC(=O)[C@H](CCCNC(=N)N)NC(=O)[C@H](CCC(N)=O)NC(=O)[C@@H](NC(=O)[C@H](C)NC(=O)[C@@H]1CSSC[C@H](NC(=O)[C@@H](N)CCCCNC(=O)COCCOCCNC(=O)COCCOCCNC(=O)CC[C@H](NC(=O)CCCCCCCCCCCCCCCCCCC(=O)O)C(=O)O)C(=O)N[C@@H](CC(N)=O)C(=O)N[C@@H]([C@@H](C)O)C(=O)N[C@@H](C)C(=O)N[C@@H]([C@@H](C)O)C(=O)N1)[C@@H](C)O)C(=O)N1CCC[C@H]1C(=O)N[C@@H](CO)C(=O)N[C@@H](CO)C(=O)N[C@H](C(=O)N1CCC[C@H]1C(=O)N[C@H](C(=O)NCC(=O)N[C@@H](CO)C(=O)N[C@@H](CC(N)=O)C(=O)N[C@H](C(=O)N[C@@H](Cc1ccc(O)cc1)C(N)=O)[C@@H](C)O)C(C)C)[C@@H](C)O
notes: also called compound 96
B4: N^ε1-[2-[2-[2-[[2-[2-[2-[[(4S)-4-carboxy-4-(19-carboxynonadecanoylamino)butanoyl]amino]ethoxy]ethoxy]acetyl]amino]ethoxy]ethoxy]acetyl]-[Arg17,Pro21,Pro27,Pro34 … (peptide)
peptide: K([AEEA-AEEA-γGlu-C20 diacid])CNTATCATQRLANFLRHSSPNFGAIPSSTNVGPNTY-NH2
modifications: disulfide 2-7; N-terminus assumed
SMILES: CC[C@H](C)[C@H](NC(=O)[C@H](C)NC(=O)CNC(=O)[C@H](Cc1ccccc1)NC(=O)[C@H](CC(N)=O)NC(=O)[C@@H]1CCCN1C(=O)[C@H](CO)NC(=O)[C@H](CO)NC(=O)[C@H](Cc1c[nH]cn1)NC(=O)[C@H](CCCNC(=N)N)NC(=O)[C@H](CC(C)C)NC(=O)[C@H](Cc1ccccc1)NC(=O)[C@H](CC(N)=O)NC(=O)[C@H](C)NC(=O)[C@H](CC(C)C)NC(=O)[C@H](CCCNC(=N)N)NC(=O)[C@H](CCC(N)=O)NC(=O)[C@@H](NC(=O)[C@H](C)NC(=O)[C@@H]1CSSC[C@H](NC(=O)[C@@H](N)CCCCNC(=O)COCCOCCNC(=O)COCCOCCNC(=O)CC[C@H](NC(=O)CCCCCCCCCCCCCCCCCCC(=O)O)C(=O)O)C(=O)N[C@@H](CC(N)=O)C(=O)N[C@@H]([C@@H](C)O)C(=O)N[C@@H](C)C(=O)N[C@@H]([C@@H](C)O)C(=O)N1)[C@@H](C)O)C(=O)N1CCC[C@H]1C(=O)N[C@@H](CO)C(=O)N[C@@H](CO)C(=O)N[C@H](C(=O)N[C@@H](CC(N)=O)C(=O)N[C@H](C(=O)NCC(=O)N1CCC[C@H]1C(=O)N[C@@H](CC(N)=O)C(=O)N[C@H](C(=O)N[C@@H](Cc1ccc(O)cc1)C(N)=O)[C@@H](C)O)C(C)C)[C@@H](C)O
notes: also called compound 98

Molecular target: T1, rat amylin receptor (rat calcitonin receptor + rat RAMP 3) (rat, UniProt P32214 25-516; Q9JJ73 23-147)
T1 construct: whole, on cells; Membranes prepared from transiently transfected BHK tk'ts 13 cells; also called rAmylin-R; rat amylin 3(a) receptor
T1 sequence (looked up) 1: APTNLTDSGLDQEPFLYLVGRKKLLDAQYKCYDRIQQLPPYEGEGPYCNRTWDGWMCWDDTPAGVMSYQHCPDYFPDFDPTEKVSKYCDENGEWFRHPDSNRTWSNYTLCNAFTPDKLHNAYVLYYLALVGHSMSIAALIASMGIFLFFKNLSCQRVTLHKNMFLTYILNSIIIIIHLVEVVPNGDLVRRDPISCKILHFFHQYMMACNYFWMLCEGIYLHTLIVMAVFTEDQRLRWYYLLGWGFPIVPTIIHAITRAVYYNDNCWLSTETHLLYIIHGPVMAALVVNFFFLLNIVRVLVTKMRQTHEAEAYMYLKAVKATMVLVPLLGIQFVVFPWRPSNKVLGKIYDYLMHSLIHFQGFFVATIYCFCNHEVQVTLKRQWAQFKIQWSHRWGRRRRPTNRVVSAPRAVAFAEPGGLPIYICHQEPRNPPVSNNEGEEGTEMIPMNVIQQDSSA
T1 sequence (looked up) 2: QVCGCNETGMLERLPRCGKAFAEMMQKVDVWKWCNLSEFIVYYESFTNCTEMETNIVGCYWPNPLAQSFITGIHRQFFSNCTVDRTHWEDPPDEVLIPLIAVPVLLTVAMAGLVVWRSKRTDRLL
Test: SPA competition vs 125I-rat amylin, membranes (Assay VI)

IC50 [nM]	Binder
0.182	K([γGlu-γGlu-C20 diacid])CNTATCATQRLAEFLRHSSPNFGAIPSSTNVGPETY-NH2 (disulfide 2-7 (inferred))
5.45	B1
2.24	B2
0.529	B3
0.137	B4

Molecular target: T2, rat calcitonin receptor (rat, UniProt P32214 25-516)
T2 construct: whole, on cells; Membranes prepared from transiently transfected BHK tk'ts 13 cells; also called rCTR; rat calcitonin (a) receptor
T2 sequence (looked up): T1 sequence (looked up) 1
Test: SPA competition vs 125I-calcitonin, membranes (Assay VIII)

IC50 [nM]	Binder
16.1	K([γGlu-γGlu-C20 diacid])CNTATCATQRLAEFLRHSSPNFGAIPSSTNVGPETY-NH2 (disulfide 2-7 (inferred))
388	B1
159	B2
62.2	B3
24.1	B4

Molecular target: T3, human calcitonin receptor (human, UniProt P30988 25-474)
T3 construct: whole, on cells; Membranes from stably transfected BHK cells; also called hCTR; hCT
T3 sequence (looked up): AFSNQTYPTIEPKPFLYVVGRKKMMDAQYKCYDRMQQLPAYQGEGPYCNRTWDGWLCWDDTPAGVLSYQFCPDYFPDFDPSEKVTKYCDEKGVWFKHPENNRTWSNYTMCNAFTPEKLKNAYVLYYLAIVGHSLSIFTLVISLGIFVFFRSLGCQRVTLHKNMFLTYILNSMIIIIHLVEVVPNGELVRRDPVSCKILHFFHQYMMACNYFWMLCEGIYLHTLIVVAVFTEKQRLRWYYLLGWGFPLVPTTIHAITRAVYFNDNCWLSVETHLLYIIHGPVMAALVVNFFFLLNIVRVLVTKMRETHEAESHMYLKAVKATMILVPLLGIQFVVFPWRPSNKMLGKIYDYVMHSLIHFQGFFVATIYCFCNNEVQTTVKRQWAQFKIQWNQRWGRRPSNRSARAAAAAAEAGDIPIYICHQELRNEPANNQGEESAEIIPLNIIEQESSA
Test: ratio of IC50 on human calcitonin receptor to IC50 on human amylin receptor
Description: The resulting pellet was resuspended, homogenized and centrifuged (20.000 rpm, 15 min) in a buffer containing 20 mM Na-HEPES and 0.1 mM EDTA (pH 7.4, buffer 2). The resulting pellet was resuspended in buffer 2 and protein concentration was measured (BCA protein Assay, Pierce). The homogenate was kept cold during the whole procedure. The membranes were kept at −80° C. until use. The assay was performed in a 384 well Optiplate (PerkinElmer) in a total volume of 40 ul. Membranes were mixed with SPA beads. Final concentration of membranes 35 ng/μL final and SPA beads was 0.05 mg/well. Test-compounds were dissolved in DMSO and further diluted in assay buffer (50 mM Hepes, pH 7.4, 1 mM CaCl2, 5 mM MgCl₂, 0.1% OA and 0.02% Tween20). […] The final mixture was incubated with shaking at 400 rpm for 120 min at 25° C. prior to centrifugation (1500 rpm, 10 min). Samples were analyzed on TopCounter™ (Packard). The IC₅₀ was calculated using (one site binding competition analysis) GraphPad Prism5 as a measure of receptor affinity.
Membranes were prepared in the following way; the cells were rinsed with PBS and incubated with Versene for approximately 5 min before harvesting. The cells were flushed with PBS and the cell-suspension was centrifuged for 5 min at 1000 rpm. Cells were homogenized (Ultrathurrax) in a buffer containing 20 mM Na-HEPES and 10 mM EDTA (pH 7.4) and centrifuged at 20.000 rpm for 15 min. The resulting pellet was resuspended, homogenized and centrifuged (20.000 rpm, 15 min) in a buffer containing 20 mM Na-HEPES and 0.1 mM EDTA (pH 7.4, buffer 2). The resulting pellet was resuspended in buffer 2 and protein concentration was measured (BCA protein Assay, Pierce). The homogenate was kept cold during the whole procedure. The membranes were kept at −80° C. until use. Assay was performed in a 384 well Optiplate (PerkinElmer) in a total volume of 40 ul. Membranes were mixed with SPA beads.

Ratio hCT/hAmylin binding	Binder
17.6	K([γGlu-γGlu-C20 diacid])CNTATCATQRLAEFLRHSSPNFGAIPSSTNVGPETY-NH2 (disulfide 2-7 (inferred))
63.4	B1
104	B2
79.6	B3
74.1	B4

Molecular target: T2, rat calcitonin receptor
Test: ratio of IC50 on rat calcitonin receptor to IC50 on rat amylin receptor

Ratio rCT/rAmylin binding	Binder
88.5	K([γGlu-γGlu-C20 diacid])CNTATCATQRLAEFLRHSSPNFGAIPSSTNVGPETY-NH2 (disulfide 2-7 (inferred))
71.3	B1
71.1	B2
118	B3
176	B4
